Source: patent US20230391862A1, “METHOD OF S[…] RESPONSE TO VECTOR-DELIVERED T[…]” (Scout Bio, Inc., priority 2020, published 2023)

B1: feNGF mAb: recombinant purified felinized anti-NGF monoclonal antibody, clone JCV4, SEQ ID NOs: 1 and 2 (antibody, V domains shown)
VH: QVQLMESGADLVQPSESLRLTCVASGLSLTNNNVNWVRQAPGKGLEWMGGVWAGGATDYNSALKSRLTITRDTSKNTVFLQMHSLQSEDTATYYCARDGGYSSSTLYAMDAWGQGTTVTVSA
VL: DIEMTQSPLSLSATPGETVSISCRASEDIYNALAWYLQKPGRSPRLLIYNTDTLHTGVPDRFSGSGSGTDFTLKISRVQTEDVGVYFCQHYFHYPRTFGQGTKLELK
modifications: felinized anti-NGF antibody VH Sequence; felinized anti-NGF antibody VL Sequence
B2: fNGFV5_1 mAb: purified felinized anti-NGF monoclonal antibody, clone V5_1, SEQ ID NOs: 2 and 5 (antibody, V domains shown)
VL: DIEMTQSPLSLSATPGETVSISCRASEDIYNALAWYLQKPGRSPRLLIYNTDTLHTGVPDRFSGSGSGTDFTLKISRVQTEDVGVYFCQHYFHYPRTFGQGTKLELK
VH: QVQLVESGGDLVQPGGSLRLTCVASGFSLTNNNVNWVRQAPGKGLEWMGGVWAGGATDYNSAVKSRLTITRDTSKNTVFLQMHSLQSEDTATYYCARDGGYSSSTLYAMDAWGQGTTVTVSA
modifications: felinized anti-NGF antibody VL Sequence; felinized anti-NGF antibody (V5_1) VH Sequence

Experiments:
[1] = Serum level of feNGF mAb in cats by NGF-binding ELISA; format: in vivo, cat
Protocol: The concentration of FeNGF mAb in cat serum was determined using an NGF-binding ELISA. ELISA plates were coated with 0.1 μg/ml muNGF and blocked with PBS/0.05% Tween 20/1% BSA. muNGF coated wells were incubated for 1 h at room temperature with serum diluted in PBS/0.05% Tween 20/1% BSA in the amount of 100 μl/well. FeNGF antibody concentrations ranging from 1.56 ng/ml to 100 ng/ml were used to establish a binding curve. Well plates were washed following incubation and were then incubated with a 1/10,000 dilution of goat anti-feline IgG-HRP in PBS/0.05% Tween 20/1% BSA. Plates were washed with PBS/0.05% Tween 20 and developed by the addition of 3,3′,5,5′-tetramethylbenzidine (TMB) substrate. Development was stopped by the addition of 2M H2SO4 and the absorbance read at 450 nm and background was subtracted from the resulting reading.
The concentration of feline anti-NGF mAb in cat serum was determined using an NGF-binding ELISA. […] Development was stopped by the addition of 2M H2SO4 and absorbance read at 450 nm and background was subtracted.
The concentration of feline anti-NGF mAbs in cat serum was determined using an NGF-binding ELISA. […] Development was stopped by the addition of 2M H2SO4 and absorbance read at 450 nm and background was subtracted.

[2] = test system: anti-transgene product antibody (ATPA) response, anti-(anti-feNGF mAb) antibodies; experiment: Bridging immunoassay for anti-transgene product antibodies (ATPA) in cat serum after IM AAV; conditions: cats; for ATPA up to 98 days post AAV administration: mAb 2 mg/kg SC 14 days before AAV IM 2.5×10^11 gc/kg
Protocol: A bridging Immunoassay with acid dissociation was used to evaluate the presence of anti-(anti-feNGF mAb) antibodies in the cat serum. Samples were pre-treated with acid to disrupt any existing ATPA-feNGF mAb complexes before assessment in the bridging assay. Samples were diluted to 2.5% in 300 mM acetic acid to enable ATPA-feNGF mAb complex dissociation before analysis. Acidified samples were incubated for 40 min with shaking at ambient temperature. 25 μl of the acidified samples were transferred to wells of a 96 well plate containing 90 μL of master-mix reagent (0.125 μg/mL of biotinylated feNGF mAb and 0.125 μg/mL of ruthenylated feNGF mAb with 1% Meso Scale Discovery (MSD) Blocker A in PBS-T) and 11 μL 1.2M Tris solution (pH 9.5). Acidified samples plus master-mix reagents were incubated at ambient temperature in the dark for 60 min with shaking. Simultaneously, Streptavidin-coated MSD plates were blocked for 60 min at ambient temperature with 200 μL/well of PBS-T buffer containing 3% (MSD) Blocker A. The Streptavidin-coated MSD plates were then washed and 25 μl of the acidified sample plus master-mix reagent were transferred to the plates which were then incubated at ambient temperature in the dark for 60-90 min with shaking. The MSD plates were washed and then 150 μL of 2×MSD Read T-Buffer was added per well before the plates were read on an MSD MESO QuickPlex SQ 120 instrument. The resulting response was recorded as Relative Light Units (RLU).
A bridging immunoassay with acid dissociation was used to evaluate the presence of anti-(anti-feNGF mAb) antibodies in the cat serum at timepoints when the circulating levels of drug were at the lowest (pre-dose). Samples were pre-treated with acid to disrupt any existing ADA-feNGF mAb complexes before assessment in the bridging assay. Briefly, samples were diluted to 2.5% in 300 mM acetic acid to enable ADA-drug complex dissociation before analysis. Acidified samples were incubated for 40 min with shaking at ambient temperature. 25 μl of the acidified samples were transferred to wells of a 96 well plate containing 90 μL of master-mix reagent (0.125 μg/mL of biotinylated feNGF mAb and 0.125 μg/mL of ruthenylated feNGF mAb with 1% Meso Scale Discovery (MSD) Blocker A in PBS-T) and 11 μL 1.2M Tris solution (pH 9.5). Acidified samples plus master-mix reagents were incubated at ambient temperature in the dark for 60 min with shaking. Simultaneously, Streptavidin-coated MSD plates were blocked for 60 min at ambient temperature with 200 μL/well of PBS-T buffer containing 3% (MSD) Blocker A.
The Streptavidin-coated MSD plates were then washed and 25 ul of the acidified sample plus master-mix reagent were transferred to the plates which were then incubated at ambient temperature in the dark for 60-90 min with shaking. The MSD plates were washed, 150 μL of 2×MSD Read T-Buffer was added per well before the plates were read on an MSD MESO QuickPlex SQ 120 instrument. The resulting response was recorded as Relative Light Units (RLU).
A bridging immunoassay with acid dissociation was used to evaluate the presence of anti-(anti-feNGF mAb) antibodies in the cat serum at timepoints when the circulating levels of drug were at the lowest (pre-dose). Samples were pre-treated with acid to disrupt any existing ADA-feNGF mAb complexes before assessment in the bridging assay. Briefly, samples were diluted to 2.5% in 300 mM acetic acid to enable ADA-drug complex dissociation before analysis. Acidified samples were incubated for 40 min with shaking at ambient temperature.

Molecule | expression of feNGF mAb in the serum ([1]; mAb 2 mg/kg SC day −14, then AAV.CB7.feNGF IM 2.5×10^11 gc/kg day 0 (FIG. 4B)) | ATPA up to 98 days post AAV administration ([2]; Example 7) | ATPA response after pre-treatment ([2]; pre-treatment, then AAV.CB7.feNGF IM 2.5×10^11 gc/kg at day 0 (FIG. 4E-4H)) | detectable serum antibody ([1]; Example 8, high dose (1×10^13 gc/cat) cohort, the animal with ATPA response) | ATPA signal following the recombinant mAb administration ([2]; Example 7, V5_1 pre-treatment group, did not persist, did not affect transgene expression (FIG. 10F)) | treatment induced ATPA response ([2]; Example 8, mAb 2 mg/kg SC day −14, then high dose of AAV (1×10^13 gc/cat)) | treatment-emergent immunogenicity up to 56 days post AAV administration ([2]; Example 8, mAb 2 mg/kg SC day −14, then medium dose of AAV (1×10^12 gc/cat))
B1 | strong, sustained expression of feNGF mAb was observed | no evidence of ATPA was observed | no ATPA response was observed |  |  |  | 
B2 |  | no evidence of ATPA was observed |  | sudden loss in detectable serum antibody | low, transient ATPA signal was observed in one animal | A single treatment induced ATPA response was observed | no evidence of treatment-emergent immunogenicity was observed
